The results in this text go back to the Immune Epitope Database (IEDB).

Assay [1] concerns the target HLA-B*44:02. Kind of assay: IEDB peptide-MHC binding, purified MHC/direct/fluorescence; filed as Kd, often an IC50 or EC50 that approximates it; ≥ and ≤ were set here for values at or beyond the usual limits of such assays.
For assay [2], the target named is HLA-B*07:02. Described as above. Particulars: source organism: Mammarenavirus lassaense.
Assay [3] deals with HLA-A*29:02. The assay is described as above.
Assay [4] concerns the target HLA-A*11:01. The description is as above. Particulars: source organism: Mammarenavirus lassaense.
The target in assay [5] is HLA-A*69:01. The assay is described as above. The following applies: source organism: Mammarenavirus lassaense.
Assay [6] addresses HLA-B*58:01. Described as above. Particulars: source organism: Mammarenavirus lassaense.
The target in assay [7] is HLA-B*39:01. The assay is described as above.
The target of assay [8] is HLA-B*46:01. The description is as above.
Assay [9] deals with HLA-A*31:01. The description is as above.
Assay [10] concerns the target HLA-A*02:01. Described as above.
The target of assay [11] is HLA-B*15:01. The description is as above.
Assay [12] deals with HLA-A*01:01. The assay is described as above.
Assay [13] addresses HLA-A*03:01. Described as above.
Assay [14] has as its target HLA-B*27:05. Described as above.
Assay [15] addresses HLA-B*18:01. The assay is described as above.
Assay [16] concerns the target HLA-B*40:01. Described as above. Particulars: source organism: Mammarenavirus lassaense.
For assay [17], the target named is HLA-B*57:01. The assay is described as above.
For assay [18], the target named is HLA-B*48:01. The assay is described as above.
In assay [19] the target is HLA-A*68:02. Described as above.
In assay [20] the target is HLA-A*24:03. The description is as above.
In assay [21] the target is HLA-A*02:12. Described as above.
In assay [22] the target is HLA-A*02:11. The assay is described as above.
For assay [23], the target named is HLA-A*69:01. In words: IEDB peptide-MHC binding, purified MHC/competitive/fluorescence; filed as Kd, often an IC50 or EC50 that approximates it; ≥ and ≤ were set here for values at or beyond the usual limits of such assays.
Assay [24] has as its target HLA-B*51:01. The assay is described as above.
Assay [25] concerns the target HLA-B*27:03. The description is as above.
For assay [26], the target named is HLA-A*26:01. Described as above.
Assay [27] concerns the target HLA-A*02:03. In words: IEDB peptide-MHC binding, purified MHC/direct/fluorescence; filed as Kd, often an IC50 or EC50 that approximates it; ≥ and ≤ were set here for values at or beyond the usual limits of such assays.
In assay [28] the target is HLA-A*02:16. The assay is described as above.
Assay [29] has as its target HLA-A*02:19. The assay is described as above.
In assay [30] the target is HLA-B*39:01. In words: IEDB peptide-MHC binding, purified MHC/competitive/fluorescence; filed as Kd, often an IC50 or EC50 that approximates it; ≥ and ≤ were set here for values at or beyond the usual limits of such assays.
Assay [31] has as its target HLA-B*46:01. Described as above.
Assay [32] concerns the target HLA-A*02:01. The assay is described as above.
Assay [33] has as its target HLA-B*15:01. Described as above. The following applies: source organism: Orthohantavirus andesense.
The target in assay [34] is HLA-A*03:01. The assay is described as above. The following applies: source organism: Orthohantavirus andesense.
For assay [35], the target named is HLA-B*18:01. The assay is described as above.
Assay [36] addresses HLA-B*57:01. The description is as above.
The target in assay [37] is HLA-A*23:01. Kind of assay: IEDB peptide-MHC binding, purified MHC/direct/fluorescence; filed as Kd, often an IC50 or EC50 that approximates it; ≥ and ≤ were set here for values at or beyond the usual limits of such assays. Particulars: source organism: Reston ebolavirus.
The target in assay [38] is HLA-B*15:01. Kind of assay: IEDB peptide-MHC binding, purified MHC/competitive/fluorescence; ≥ and ≤ were set here for values at or beyond the usual limits of such assays. The following applies: source organism: Sudan ebolavirus.
Where [39] appears, read: source organism: Mammarenavirus lassaense.
Setting [40] is: source organism: Isla Vista hantavirus.
Where [41] appears, read: source organism: Orthohantavirus tulaense.
[42] abbreviates: source organism: Orthohantavirus puumalaense.
The mark [43] stands for this setting: source organism: Orthohantavirus andesense.
Where [44] appears, read: source organism: Reston ebolavirus.

Take KHDEEFCDM: the Kd in assay [1] (setting [39]), in assay [2], in [3] (setting [39]), in assay [4], in assay [5] and in assay [6] was ≥ 20 µM each time. The equilibrium dissociation constant (Kd) in [7] (setting [39]), in [8] (setting [39]), in assay [9] (setting [39]), in assay [10] (setting [39]), in [11] (setting [39]) and in assay [12] (setting [39]) was ≥ 20 µM in each case. Besides, the Kd in [13] (setting [39]), in [14] (setting [39]), in assay [15] (setting [39]), in assay [16], in assay [17] (setting [39]) and in assay [18] (setting [39]) was ≥ 20 µM throughout.

For SSLRYGNVL, the Kd is ≥ 20 µM in assay [1] (setting [40]); ≥ 20 µM in assay [19] (setting [41]); ≥ 20 µM in [20] (setting [41]); ≥ 20 µM in [3] (setting [40]); 4 µM in assay [7] (setting [40]); ≥ 20 µM in assay [8] (setting [40]). The Kd in [9] (setting [40]), in assay [10] (setting [40]), in assay [11] (setting [40]), in assay [12] (setting [40]), in [13] (setting [40]) and in [21] (setting [41]) was ≥ 20 µM each time. In addition, the equilibrium dissociation constant (Kd) in [14] (setting [40]), in assay [22] (setting [41]), in [15] (setting [40]), in assay [17] (setting [40]), in assay [18] (setting [40]) and in [23] (setting [42]) was ≥ 20 µM in each case. Further, the Kd in assay [24] (setting [42]), in [25] (setting [42]) and in assay [26] (setting [42]) was ≥ 20 µM each time.

On to STGKSIKFK, for which the Kd in [19] (setting [43]), in [20] (setting [43]), in assay [3] (setting [43]), in [21] (setting [43]), in [27] (setting [43]) and in assay [22] (setting [43]) was ≥ 20 µM in each case. In addition, the Kd in assay [28] (setting [43]), in [29] (setting [43]), in [23] (setting [43]), in assay [30] (setting [43]), in assay [31] (setting [43]) and in [32] (setting [43]) was ≥ 20 µM each time. Also, the Kd in assay [33] is ≥ 20 µM; in assay [34], 0.0147 µM; in [35] (setting [43]), ≥ 20 µM; in assay [36] (setting [43]), ≥ 20 µM; in assay [24] (setting [43]), ≥ 20 µM; in [25] (setting [43]), ≥ 20 µM. In addition, the equilibrium dissociation constant (Kd) in assay [26] (setting [43]) was ≥ 20 µM.

As for GVPPKVVSY, the equilibrium dissociation constant (Kd) in [19] (setting [44]) is ≥ 20 µM; in [20] (setting [44]) it was ≥ 20 µM; in assay [37], ≥ 20 µM; in assay [11] (source organism: Reston ebolavirus - Reston), 2.56 µM; in assay [13] (setting [44]), ≥ 20 µM; in assay [21] (setting [44]), ≥ 20 µM. In addition, the Kd in assay [27] (setting [44]), in [22] (setting [44]), in assay [28] (setting [44]), in assay [29] (setting [44]), in [23] (setting [44]) and in assay [30] (setting [44]) was ≥ 20 µM each time. Moreover, the Kd in [31] (setting [44]), in assay [32] (setting [44]), in assay [35] (setting [44]), in assay [36] (setting [44]), in [24] (setting [44]) and in [25] (setting [44]) was ≥ 20 µM each time. Besides, in assay [26] (setting [44]), the dissociation constant (Kd) was ≥ 20 µM. Also, the 50% inhibitory concentration (IC50) in assay [38] is 57.8 µM.

For orientation: Kd means the concentration at which binding is half-saturated. A higher Kd goes with a looser complex. As a reminder, the IC50 is the concentration that inhibits the measured activity by half.
